Measurements: the nanobody polyreactivity screen of Harvey et al. (2022)

Assay: yeast display, Sf9 membrane polyspecificity reagent, FACS + sequencing; frameworks hold sequencing errors
Summary of the method: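 Genes from sorted yeast were amplified by colony PCR, read by MiSeq 2 × 250 sequencing and filtered on CDR length. These cells carried a synthetic nanobody library in Saccharomyces cerevisiae BJ5465 and were sorted by FACS into low and high (top ~1%) gates on anti-HA and streptavidin fluorescence. Polyreactivity is labelled according to the gate of origin.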

| Sequence | polyreactivity (PSR sort gate) |
| --- | --- |
| QVQLVESGGGLVQAGGSLRLSCAASGYIFYNYAMGWYRQAPGKERELVAAISRRGGSTYYADSVKGRFTISRDNAKNTVYLQMNSLKPEDTAVYYCAKTPYAHPNYYTDYYWGQGTQVTVSS | high polyreactivity |
| QVQLVESGGGLVQAGGSLRLSCAASGSTFYHNAMGWYRQAPGKERELVAAMTWSGSRTYYADSVKGRFTISRDNAKNTVYLQMNSLKPEDTAVYYCAARDYWGQGTQVTVSS | high polyreactivity |
| HVQLQESGGGMVQASGSPRLSCPASGNIFDADIMGWYRQAPGKQCELVASITDGGSTNYADSEKGRFTISSDNAKNTVYLQMNSLKPEDTAVYYCAAIAYPDIPTYFDYDSDYFYWGQGTHVTVSS | high polyreactivity |
| QVQLVESGVGLVQAGGSLRLSCAASGFIFNYNTMGWYRQAPGKERELVAAISSSGGSTYYADSVKGRFTISRDNAKNTVYLQMNSLKPEDTAVYYCAAGANAQRVPNGDYWGQGTQVTVSS | low polyreactivity |
| QVQLVESGGGLVQAGGSLRLSCAASGFTFYPYTMGWYRQAPGKERELVAAISSSGGSTYYADSVKGRFTISRDNAMNTVYLQMNSLKPEDTAVYYCATRSWGPYYYGYNHWGQGSQVTVSS | high polyreactivity |
| QVQLVESGGGLVQAGGSLRLSCAASGFIFDFYTMGWYRQAPGKERELVAAITNGGSTYYADSVKGRFTISRDNAKNTVYLQMNSLKPEDTAVYYCAAYYRSRHHGYDSWGQGTQVTVSS | low polyreactivity |
| QVQLVESGGGLVQAGGRLRLRCAASGSTFGYYAMGWYRQAPGKERELVAAISRSGGITYYADSVKGRFTISRDNAKNTVYLQMNSLKPEDTAVYYCAADRNRYTGEDDSWGEGTQVTVSS | low polyreactivity |
| QVQLVESGGGLVQAGGSLRLSCAASGRIFKLNDMGWYRQAPGKERELVAAITRGTGSTYADSVKGRFTISRDNAMNTVYLQMNSLKPEDTAVYDCATRYSYRRLSFPRPDEMEYWGQGTQVTVSS | low polyreactivity |
| QVQLVESGGGLVQEGGSLRLSCAASGFTFRQYAMGRSRQAPGKEMELVAAITKTGGSTYYADSVKGRFTISRDHAKNTVYLQMNSLKPEDPAVYYCNAARETRPRDYYWGQGTQVTVSS | low polyreactivity |
| QVQLVESGGGLVQAGGSLRLICAASGLTFVPNAMGWYRQAPGKERELVAGITSAGSTYYADSVKGRFTISRDNAKNTVYLQMNSLKPEDTAVYYCAKQFYRGFRYGYWGQGTQVTVSS | high polyreactivity |
| QVQLVESGGGLVQAGGSLRLSCAASGGTFLVNAMGWYRQAPGKERELVATITARVGSTYYADSVKGRFTISRDNAKNTVYLQMNSLKPEDTADYYCAAYPQLWYWDYNYWGQGTQVTVSS | high polyreactivity |
| QVQHVESGGGLVQAGGSLRLSCAASGFTIVYYGMGRYRQAPGKERELVAAITYSGGRTYYADSVKGRFTISRDNAKNTVYLQMNSLKPEDTAVYYCNAYTQQYRSYGYWGQGTQVTVSS | high polyreactivity |
| QVQLVESGGGLVQAGGSLRLSCAASGRTIASYTMGWYRQAPGKERELVAAISKSGGSTYYADSVKGRFTISRDNAKNTVYLQMNSLKPEDTAVYYCAKRRSGNVRKYDYWGQGTQVTVSS | high polyreactivity |
| QVQRVESGGGLVQAGGSLRLSCADSGGTFGSYAKGCSSQAPGQDRELVDAIDYSGADTYYADSVKGRFTISRDNAKNTVYLQMNSLKREDTAVFSCNADPLPYDGFYDYDYWGQGTQVTVSS | low polyreactivity |
| QVQLVESGAGLVQAGGSLRLSCAASGSTCPGNAMGWYRQAPGKERELVAVINSGGGTNYADSVKGRFTISRDNAKNTVYFQINSLNPEDTAVYYCAKGYRRSFIGYWYLKYGYWGQGTQVTVSS | high polyreactivity |
| QVQLVESGGGLVQAGGSLRLSCAASGRTFQRYAMGWYRQAPGKERELVAAISFSGGSTYYADSVKGRFTISRDNAKNTVYLQMNSLKPEDTAVYYCAAYHARSGYDSWGQGTQVTVSS | high polyreactivity |
| QVHLVESGGGLVQAGGSLRLSCAASGYTIRRNAMGWYRQAPGKERELVAAITSGGSTDYADSVKGRFTISRDNAKNTVYLQMISLKPEDTAVYYCAADGIYRGAWSTVYESPGYDYWGQGTQVTVSS | low polyreactivity |
| QVQLVESGGGLVQAGGSLRISCAASGRTFYINAMGWYRQAPGKVWELVASISRSGGGTYYADSVKGRFTISRDNAKNNVYLQMNCLKPEDTAVYYCAAYSWSYSGYNFWGQGTQVTVSS | high polyreactivity |
| QVQLLESGGGLVQAGGSLRLSCAASGRIFNPYAMGWFRQARGKERALVAASSSCGDRTFYADSVKGRFTISRDNAKNTVYLQMNSRKPEDTAVYFCNTVVYTRFRPWRYGYCGQGTQVTVSS | high polyreactivity |
| QVQLVESGGGLVQAGGSLRLSCAASGSIFDRYAMGWYRQAPGKERELVAAISRSGGSTYYADSVMGRFTISRDNAKNTVYLQMNSLKPEDTAVYYCAAYQHPGLRTSYEYWGQGTQVTVSS | low polyreactivity |
| QVQLVESGGGLVQAGGSLRLSCAASGRTFNSTAMGWYRQAPGKERELVAAITRSGGSTYYADSVKGRFTISRDYAKNTVYLQMISQKPEDTAVNYCITTRWTQRTSFDYWGQGTQVTVSS | low polyreactivity |
| QVQLVESGGGLVQAGGSLRLSCAASGRIFYGYTMGWYRQAPGKERELVASITIRGSRTYYADSVKGRFTISRDNAKNSVYLQMNSLKPEDTAVYYCAADFVPARTVHRYDYWGQGTQVTVSS | low polyreactivity |

| Sequence | polyreactivity (PSR sort gate) |
| --- | --- |
| QDQLVESRGGLVQAGGSLGLSCAASGSIFSYYAMGWYRQAPGKERELVAAITSGGATTYYADSVKGRFTISRDYAKNTVYLQMNSLKPEDTAVYYCAAGYYVYYRWWELDYWGQGTQVTVSS | low polyreactivity |
| QVQLVESGGGLVQAGGSLRLSCAASGGTFSYYAMGWYRQAPGKERELVASISTDGGSTYYADSVKGRFTISRDNAKNTVYLQMNSLKPEDTAVYYCNARPRGYSDRYGYWGQGTQVTVSS | high polyreactivity |
| QVQLVESGGGLVQAGGSLRLSCAASGFTFRRYVMGWYRQAPGKERELVAAISQSGGSTYYADSVKGRFTISRDNAMNTVYLQMNSLKPEDTAVYYCAAAKVPYGWAQSDYWGQGTQVTVSS | high polyreactivity |
| QVQLVESGGCLVQAGGSLRLSCAASGRTFYGNDMGWYSQAPGTERELVAAISSSGGSTYYADSVKGRGTISRDNGKNTVYLQMKSLKPEDTAVYYCNAYWRGFRLSYYEDSYYWGQGTQVTVSS | high polyreactivity |
| QVQLVESGGGLVQAGGSLRLSCAASGIIFSYYAMGWYRPEHGKEREFVAVITTGGGSTSYADSVKGRFTISRDNAKNTVYLQMNSLKPEDTAVYYCTAGHLGLDGIQDGVDYWGQGTQVTVSS | low polyreactivity |
| QVQLEESGGGLVQAGGSLRLSCADSGITFYLNAMGWYRQAPGKERELVADITVSGGSTYYADSVKGRFTISRDNAKNTVYLEMNSLKPEDTAVYYCAADMTISYSQEYYFWGQGTQVTVSS | low polyreactivity |
| QVQLVESGGGLVQAGGSLRLSCAASGSTFKDNAMGRYIQAPGKERELVARITYRGGRTYADSVKGRFTISRDNAKNTVYFQMNSLKPEDTAVYYCAARPSLYGHNSRYDYWGQGTQVTVSS | low polyreactivity |
| QVQLVESGGGLVQAGGSLRLSCAASGSIFSGYAMGWYRQAPGKERELVAAISRGGSTNYADSVKGRFTISRDNAKNTVYLQMNSLKPEDTAVYYCATTPTKYHYAFGYWGQGSQVTVSS | low polyreactivity |
| QVQLVESGGGLVQAGGSLRLSCAASGFTFWQYTMGWYRQAPGKERELVAAITSSGGSTYYADSVKGRFTISRDNAKNTVYLQMNSLKPEDTAVYYCAADGWGYSFQWQDHDYWGQGTQVTVSS | low polyreactivity |
| QVQLVESGGGLVQAGGSLRLSCAASGSTFNRTPMGWYRQAPGKERELVAGISAGGRTYYTDSVKGRFTISRDNAKNTVYLLMNSLKPEDTAVYDCGTTSWWRCDLHTYLLTHYDYWGQGSQVTVSS | low polyreactivity |
| QVQLVESGGGLVQAGGSLRLSCAASGYTFGLYTMGWYRQAPGKEREFVATIDWSDGGTHYADSVKGRFTISRDNAKNTVYLQMNSLKPEDTAVYYCNADWYAYPYGYWGQGTQVTVSS | low polyreactivity |
| QVQIVESGGGLVQAGGSLRLSCAASGFTFVYYVMGWYRPAPGKERELVAAINSGGGSTYYADSVKGRFTISRDKAKNTVYLQMKSLKPEDTAVYYCNARVRVRLGRNWSSYYYWGQGTQVTVSS | high polyreactivity |
| QVQLVESGGGLVQAGGSLRVSCAASGFTFRGYAMGWYRQAPGKERELVAAIRRGVITNYADSVKGRFTISRDNAKNTVYLQMNSLKPEDTAVYYCAAGNITPYRYYHGYYQSIYDYWGQGTQVTVSS | low polyreactivity |
| QVQLVESGGGLVQAGGSLRLSCAASGRTFGVNAMGWYRQAPGKEREFVAAISRSTGSTYYADSVKGRFTISRDNAKNTVYLQMNSLKPEDTAVYYCAVKGASYPAYRGYDYWGQGTQVTVSS | high polyreactivity |
| QVQLVESGGGLVQAGGSLRLSCAASGSIFGSYAMGWYRQAPGKERELVAAITYSGTSTYYADSVKGRFTISRDNAKNTVYLQMNSLKPEDTAVYYCNAVSRHRSKFDYWGQGTQVTVSS | high polyreactivity |
| QVQLVESGGGLVQAGGSLRLSCAASGITFQTYTMGWYRQAPGKERELVATISWNGGSTYYADSVKGRFTISRDNAKNTVYLQMNSLKPEDNAVYDCATGKWGYFRYNYWGQGTQVTVSS | high polyreactivity |
| QVQLVESGGGLVQAGGSLRLSCAASGRTFGKYAMGWYRQAPRKEREFFAAISRSGGNTYYADTVKGRFTISRDNAKNTVYLQMTSLIPEDTAVYYCARGLSTYVLSHGLEYRTYFYWGQGTQVTVSS | high polyreactivity |
| QVQLEESGGGLVQAGGSLRLSCAASGSIFGYYAMGWYRKATGKEREFVADINSRDGGTYYADSVKGRFTISRDNAKNTVYLQMNSLKPEDTAVYYCAAPYYAAWVAVAIEYDYWGQGTQVTVSS | low polyreactivity |
| QVQLVESGGGLVQAGGSLRLSCAASGRIFRYYAMGWYRQAPGKERELVAAISWSGSSTYYADSVKGRFTISRDNAKNTVFLQMNSLKPEDTAVYYCDALILSKSEYYWGQGTQVSVSS | high polyreactivity |
| QVQLVESGGGLVQAGGSLRLSCAASGSTFLYYAMGWYRQAPGKERELVATITDGGSTNYADSVKGRFTISRDNAKNTVYLQMNSLKPEDTAVYYCATDSYHYSYGYASLPEYDYWGQGTQVTVSS | low polyreactivity |
| QVQLVESGGGLVQAGGSLRLSSAASGSTFRYYVMGRYRQAAGKERELVAGISSRGGTTYYADSVKGRFTISRDNAKNTVYLQMNSLKPEDSAVYYCNADTAAAQASYDRLYVLLDYWGQGTQVTVSS | low polyreactivity |
